Literature values, collected in publication PMC6039870.

Molecular target: RNH1 (Homo sapiens) (UniProt P13489)
Chain of UniProt P13489 (P13489 2-461): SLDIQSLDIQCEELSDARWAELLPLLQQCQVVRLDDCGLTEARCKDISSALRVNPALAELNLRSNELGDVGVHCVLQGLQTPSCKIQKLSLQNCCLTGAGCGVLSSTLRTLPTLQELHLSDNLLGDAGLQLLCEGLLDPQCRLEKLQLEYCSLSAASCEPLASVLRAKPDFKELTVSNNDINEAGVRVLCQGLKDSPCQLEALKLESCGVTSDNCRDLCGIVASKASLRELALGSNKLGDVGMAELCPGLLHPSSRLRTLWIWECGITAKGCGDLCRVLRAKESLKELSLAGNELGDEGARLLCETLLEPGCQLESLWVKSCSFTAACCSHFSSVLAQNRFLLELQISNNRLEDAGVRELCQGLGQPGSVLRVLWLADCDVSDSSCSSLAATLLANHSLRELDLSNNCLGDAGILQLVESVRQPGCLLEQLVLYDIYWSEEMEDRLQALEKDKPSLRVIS

In the case of RNASE1 (from UniProt P07998), the Kd is listed as 0.0003 pM.
